3 molecules from article PMC11122373, “Structure-Based De Novo Design for the Discovery of Miniprotein Inhibitors Targeting Oncogenic Mutant BRAF” (International Journal of Molecular Sciences, 2024) can be followed below.

This assay deals with T1, V600E mutant BRAF^15mut (BRAF kinase domain with 15 solubilizing mutations and V600E) (UniProt P15056 444-723, I543A | I544S | I551K | Q562R | L588N | K630S | Y673S | A688R | L706S | Q709R | …).
T1 construct: BRAF kinase domain, residues 444-723 of UniProt P15056, with 15 solubilizing mutations (Phe667 kept intact) and V600E; Cloned into pET-32a (NdeI, XhoI) with N-terminal MBP; also called VRAF murine sarcoma viral oncogene homologue B1 kinase domain; source: E. coli BL21(DE3), purified (MBPTrap HP column)
T1 sequence (P15056 other isoform, or with tags, fused parts or gaps with the stated changes): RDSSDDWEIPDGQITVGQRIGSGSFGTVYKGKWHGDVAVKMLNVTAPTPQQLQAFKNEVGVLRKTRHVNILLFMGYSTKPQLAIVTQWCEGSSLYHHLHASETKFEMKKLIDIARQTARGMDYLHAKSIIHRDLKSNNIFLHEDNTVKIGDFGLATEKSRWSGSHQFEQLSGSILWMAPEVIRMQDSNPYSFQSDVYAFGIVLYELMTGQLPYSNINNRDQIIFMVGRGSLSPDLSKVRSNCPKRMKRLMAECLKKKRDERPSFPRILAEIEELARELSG
The assay is described as follows: ELISA; 10 ug/mL V600E mutant BRAF^15mut coated in a 96-well plate; blocked with 5% skim milk in 20 mM Tris-HCl pH 7.5, 150 mM NaCl; purified Myc-tagged proteins (MEK1, MBP, miniproteins) added at 0, 200 and 2000 nM; detected with anti-c-Myc antibody and HRP-conjugated anti-mouse IgG, TMB, absorbance at 450 nm; triplicate. To be noted: both partners purified. Background: ELISA stands for enzyme-linked immunosorbent assay.

Changes are numbered by the printed parent chain.

B1: miniprotein 63 (designed binder)
chain: SIVGQGAQQMLVSKIKCTVANEWLDRSMLTSKFAMFVLLNEIDMLDIMLEAMGISLLEDREHQTRRVNY
notes: de novo designed miniprotein of three helices and 69 amino acids; scaffold from residues 164-232 of 14-3-3, all 69 residues allowed to mutate; Cloned into pMAL-c5x (NdeI, EcoRI) with C-terminal Myc tag; source: E. coli BL21(DE3), purified (MBPTrap HP column); not shown: MBP, N-terminal, kept; Myc, C-terminal, kept
For B1, the binding result is given as “binds”.

B2: miniprotein 76 (designed binder)
chain: B1 chain with V3Q, Q8R, M10C, I15L, S27W, L56I, L57E
notes: as for B1
Consider B2, for which the binding result is recorded as “binds”.

B3: miniprotein 94 (designed binder)
chain: PCVWTGFREFKGGQRGKERLAMCEDLMCEADWWGGNQNRDRGSIFTRVKGSGALGKISIAERGARNNAV
notes: de novo designed miniprotein of three helices and 69 amino acids; scaffold from residues 164-232 of 14-3-3, all 69 residues allowed to mutate; Cloned into pMAL-c5x with C-terminal Myc tag; source: E. coli BL21(DE3), purified (MBPTrap HP column); not shown: MBP, N-terminal, kept; Myc, C-terminal, kept
Consider B3, for which the binding result was “binds”.
